Test results from patent publication US7157568B1, “Human estrogen receptor-β” (American Home Products Corporation, priority 1997, dated 2007).

Assays:
Assay type in all cases: cell-based
[1] = tested on: NFkB binding site reporter (3x-NFkB TK.LUC) in HepG2 cells; assay: NFkB-luciferase reporter assay in IL-1β-stimulated transfected HepG2 cells; conditions: IL-1β and estradiol
Method: FIG. 7A is a graphic illustration of the effect of estradiol stimulation of full-length hERβ (hERβL) and truncated hERβ (hERβT) on NFkB activation in HepG2 cells. Cells were transfected with either hERβL or hERβT and co-transfected with a luciferase reporter plasmid containing three copies of an NFkB binding site (3×-NFkB TK.LUC) and a control β-galactosidase plasmid. Cells were stimulated with interleukin-1β and incubated in the absence or presence of estradiol, after which luciferase activity was measured and normalized to β-galactosidase activity. FIG. 7B is a graphic illustration of luciferase activity in cells transfected with either hERβL or hERβT and co-transfected with a luciferase reporter plasmid lacking an NFkB binding site (TK.LUC).
In a separate experiment, HepG2 cells were transfected with hERβT or […] as above, but the reporter gene consisted of three copies of an NFkB binding site upstream of the TK basal promoter. Transfected cells were incubated with or without interleukin-1β (IL-1β) to activate NFkB and/or with estradiol prior to luciferase determination.

[2] = tested on: ERE-LacZ reporter (YRpE2) in S. cerevisiae strain BJ2168; assay: ERE-LacZ reporter assay in yeast; conditions: 17-β estradiol or Genistein for 3 hours
[3] = tested on: ERE-reporter gene in HAECT-1 cells; assay: ERE-luciferase reporter transactivation in HAECT-1 human endothelial cells; conditions: 100 nM 17-β estradiol overnight
Method: FIG. 8 is a graphic illustration of the transcriptional activation capacity of full-length hERβ (hERβL) and truncated hERβ (hERβT) expressed in HAECT-1 human endothelial cells. Cells were transfected with either hERβL or hERβT and co-transfected with a luciferase reporter plasmid containing an ERE (ERE.TK.LUC) or one lacking an ERE (TK.LUC). Cells were incubated in the absence or presence of estradiol, after which luciferase activity was measured. ERE TK.LUC values were normalized to TK.LUC values and are presented as mean±S.E. (n=4).
HAECT-1 cells (a clonal immortalized human aortic endothelia cell line derived by infection with Ad5 ori-SV40 ts A209) were transfected with pcDNA3hERβT or pcDNA3-hERβL and ERE-luciferase plasmids by electroporation. After 4 hours, the cells were treated overnight with or without 100 nM 17-β estradiol prior to luciferase activity measurements. […] In independent experiments, cells transfected under identical conditions were monitored for their levels of estrogen receptors using a ligand binding assay.

[4] = tested on: ERE (ERE.TK.LUC reporter) in HepG2 cells; assay: ERE-luciferase reporter transactivation in transfected HepG2 cells; conditions: in the presence of estradiol
Method: FIG. 6A is a graphic illustration of the transcriptional activation capacity of full-length hERβ (hERβL) and truncated hERβ (hERβT) expressed in HepG2 cells. Cells were transfected with either hERβL or hERβT and co-transfected with a luciferase reporter plasmid containing an estrogen response element (ERE) (ERE.TK.LUC) and a control β-galactosidase plasmid. Cells were incubated in the absence or presence of estradiol, after which luciferase activity was measured and normalized to β-galactosidase activity. FIG. 6B is a graphic illustration of luciferase activity in HepG2 cells transfected with either hERβL or hERβT and co-transfected with a luciferase reporter plasmid lacking an ERE (TK.LUC)
HepG2 cells (ATCC) were transfected in parallel with either pcDNA3-hERβL or pcDNA3-hERβT using the calcium phosphate co-precipitation method. Cells were co-transfected with a reporter plasmid containing a luciferase gene preceded by either an ERE upstream of the thymidine kinase (TK) basal promoter, or the TK basal promoter alone. […] Luciferase activity was measured by a chemiluminescent method using the Promega luciferase assay system, and β-galactosidase activity was measured by Galactolight (Tropix, Inc., Bedford Mass.); luciferase activity was then normalized to β-galactosidase activity.

B1: hERβT: truncated human estrogen receptor-β lacking the first 45 amino acids (Clone 3) (protein, UniProt Q92731 46-530, looked up, fragment)
chain: MTFYSPAVMNYSIPSNVTNLEGGPGRQTTSPNVLWPTPGHLSPLVVHRQLSHLYAEPQKSPWCEARSLEHTLPVNRETLKRKVSGNRCASPVTGPGSKRDAHFCAVCSDYASGYHYGVWSCEGCKAFFKRSIQGHNDYICPATNQCTIDKNRRKSCQACRLRKCYEVGMVKCGSRRERCGYRLVRRQRSADEQLHCAGKAKRSGGHAPRVRELLLDALSPEQLVLTLLEAEPPHVLISRPSAPFTEASMMMSLTKLADKELVHMISWAKKIPGFVELSLFDQVRLLESCWMEVLMMGLMWRSIDHPGKLIFAPDLVLDRDEGKCVEGILEIFDMLLATTSRFRELKLQHKEYLCVKAMILLNSSMYPLVTATQDADSSRKLAHLLNAVTDALVWVIAKSGISSQQQSMRLANLLMLLSHVRHASNKGMEHLLNMKCKNVVPVYDLLLEMLNAHVLRGCKSSITGSECSPAEDSKSKEGSQNPQSQ
In the case of B1, the “attenuation of IL-1β-mediated NFkB transcriptional activation” value [1] is reported as “no inhibitory activity”.

B2: hERβL: full-length human estrogen receptor-β of 530 amino acid residues, SEQ ID NO:2 (protein)
chain: MDIKNSPSSLNSPSSYNCSQSILPLEHGSIYIPSSYVDSHHEYPAMTFYSPAVMNYSIPSNVTNLEGGPGRQTTSPNVLWPTPGHLSPLVVHRQLSHLYAEPQKSPWCEARSLEHTLPVNRETLKRKVSGNRCASPVTGPGSKRDAHFCAVCSDYASGYHYGVWSCEGCKAFFKRSIQGHNDYICPATNQCTIDKNRRKSCQACRLRKCYEVGMVKCGSRRERCGYRLVRRQRSADEQLHCAGKAKRSGGHAPRVRELLLDALSPEQLVLTLLEAEPPHVLISRPSAPFTEASMMMSLTKLADKELVHMISWAKKIPGFVELSLFDQVRLLESCWMEVLMMGLMWRSIDHPGKLIFAPDLVLDRDEGKCVEGILEIFDMLLATTSRFRELKLQHKEYLCVKAMILLNSSMYPLVTATQDADSSRKLAHLLNAVTDALVWVIAKSGISSQQQSMRLANLLMLLSHVRHASNKGMEHLLNMKCKNVVPVYDLLLEMLNAHVLRGCKSSITGSECSPAEDSKSKEGSQNPQSQ
modifications: Human
B2 was tested, and the “maximal level of estrogen-stimulated LacZ expression relative to hERβT-transformed cells” value [2] was 2 fold, the “activity in activating the ERE-reporter gene relative to hERβT” value [3] was 2–3 times and the “attenuation of IL-1β-mediated NFkB transcriptional activation” value [1] was “capable of attenuating”. The “activity relative to hERβT (ERE activity)” value [4] was “about 3 fold”.
